# Laboratory results as given in patent US10562947B2, “Compositions and methods for preventing or treating diseases, conditions or processes characterized by aberrant fibroblast proliferation and extracellular matrix deposition” (MOERAE MATRIX, INC., priority 2011, dated 2020).
# What was measured:
# Assay in all cases: Kinase Profiling Assay
# Format in all cases: biochemical
# Settings in all cases: 100 μM peptide
# ALK4(h) = molecular target: T1, ALK4(h) (Homo sapiens, UniProt P36896)
# T1 sequence (P36896 24-505): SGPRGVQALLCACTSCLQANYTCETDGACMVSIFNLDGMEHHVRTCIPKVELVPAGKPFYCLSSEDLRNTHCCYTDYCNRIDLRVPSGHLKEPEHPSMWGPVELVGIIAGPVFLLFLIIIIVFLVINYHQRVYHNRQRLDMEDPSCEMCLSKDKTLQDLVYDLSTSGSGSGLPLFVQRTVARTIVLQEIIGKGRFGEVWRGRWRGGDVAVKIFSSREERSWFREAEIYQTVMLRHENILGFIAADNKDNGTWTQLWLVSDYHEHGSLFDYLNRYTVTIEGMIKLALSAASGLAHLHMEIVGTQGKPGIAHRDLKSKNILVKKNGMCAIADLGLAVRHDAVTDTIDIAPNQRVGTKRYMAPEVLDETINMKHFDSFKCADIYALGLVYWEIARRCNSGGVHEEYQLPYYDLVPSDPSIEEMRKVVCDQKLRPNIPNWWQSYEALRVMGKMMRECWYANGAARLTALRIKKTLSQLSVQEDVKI
# In short: (§1)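 Read-out is kinase activity, measured twice per kinase, across 266 human kinases exposed to MK2 inhibitory peptides in a specificity screen.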
# CDK7/cyclinH/MAT1(h) = CDK7/cyclinH/MAT1(h) (Homo sapiens, UniProt P50613)
# In short: as §1
# Txk(h) = molecular target: T2, Txk(h) (Homo sapiens, UniProt P42681)
# T2 sequence (P42681 1-527): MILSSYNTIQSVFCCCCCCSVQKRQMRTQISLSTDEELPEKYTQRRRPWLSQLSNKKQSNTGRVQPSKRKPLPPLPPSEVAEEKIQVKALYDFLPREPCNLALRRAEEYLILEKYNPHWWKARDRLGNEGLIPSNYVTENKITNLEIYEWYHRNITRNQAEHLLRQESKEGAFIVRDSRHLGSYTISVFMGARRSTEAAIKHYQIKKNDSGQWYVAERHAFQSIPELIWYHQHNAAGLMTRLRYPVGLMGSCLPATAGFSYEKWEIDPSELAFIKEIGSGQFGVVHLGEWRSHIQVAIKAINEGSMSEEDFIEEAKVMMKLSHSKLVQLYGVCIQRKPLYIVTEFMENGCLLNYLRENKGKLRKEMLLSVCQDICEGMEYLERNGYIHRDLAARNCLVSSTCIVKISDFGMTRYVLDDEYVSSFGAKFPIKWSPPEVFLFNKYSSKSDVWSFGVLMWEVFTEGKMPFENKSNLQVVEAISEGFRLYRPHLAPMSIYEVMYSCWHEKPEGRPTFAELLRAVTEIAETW
# In short: as §1
# Mnk2(h) = Mnk2(h) (Homo sapiens, UniProt Q9HBH9)
# In short: as §1
# IR(h), activated = molecular target: T3, IR(h), activated (Homo sapiens, UniProt P06213)
# T3 construct: purchased Millipore
# In short: as §1
# SAPK2a(h) = SAPK2a(h) (Homo sapiens, UniProt Q16539)
# In short: as §1
# JAK2(h) = molecular target: T4, JAK2(h) (Homo sapiens, UniProt O60674)
# T4 construct: purchased Millipore
# In short: as §1
# eEF-2K(h) = eEF-2K(h) (Homo sapiens, UniProt O00418)
# In short: as §1
# GRK7(h) = molecular target: T5, GRK7(h) (Homo sapiens, UniProt Q8WTQ7)
# T5 construct: purchased Millipore
# T5 sequence (Q8WTQ7 1-553): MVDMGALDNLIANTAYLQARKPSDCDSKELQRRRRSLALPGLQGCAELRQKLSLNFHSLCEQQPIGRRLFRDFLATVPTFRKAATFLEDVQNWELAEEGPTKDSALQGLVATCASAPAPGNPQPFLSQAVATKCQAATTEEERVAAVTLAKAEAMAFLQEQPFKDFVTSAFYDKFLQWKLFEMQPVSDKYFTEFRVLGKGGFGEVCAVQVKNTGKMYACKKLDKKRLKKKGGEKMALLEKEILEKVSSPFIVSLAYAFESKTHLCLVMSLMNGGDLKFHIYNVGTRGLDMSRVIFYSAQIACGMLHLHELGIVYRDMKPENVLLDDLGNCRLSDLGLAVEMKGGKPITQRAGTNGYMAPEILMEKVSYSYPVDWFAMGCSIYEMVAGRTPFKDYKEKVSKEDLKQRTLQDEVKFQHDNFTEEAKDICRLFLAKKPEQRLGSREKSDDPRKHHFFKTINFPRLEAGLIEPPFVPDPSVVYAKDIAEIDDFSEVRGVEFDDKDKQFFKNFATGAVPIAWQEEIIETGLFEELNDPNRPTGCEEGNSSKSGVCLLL
# In short: as §1
# SRPK2(h) = SRPK2(h) (Homo sapiens, UniProt P78362)
# In short: as §1
# Sequence of Mnk2(h) (Q9HBH9 whole entry): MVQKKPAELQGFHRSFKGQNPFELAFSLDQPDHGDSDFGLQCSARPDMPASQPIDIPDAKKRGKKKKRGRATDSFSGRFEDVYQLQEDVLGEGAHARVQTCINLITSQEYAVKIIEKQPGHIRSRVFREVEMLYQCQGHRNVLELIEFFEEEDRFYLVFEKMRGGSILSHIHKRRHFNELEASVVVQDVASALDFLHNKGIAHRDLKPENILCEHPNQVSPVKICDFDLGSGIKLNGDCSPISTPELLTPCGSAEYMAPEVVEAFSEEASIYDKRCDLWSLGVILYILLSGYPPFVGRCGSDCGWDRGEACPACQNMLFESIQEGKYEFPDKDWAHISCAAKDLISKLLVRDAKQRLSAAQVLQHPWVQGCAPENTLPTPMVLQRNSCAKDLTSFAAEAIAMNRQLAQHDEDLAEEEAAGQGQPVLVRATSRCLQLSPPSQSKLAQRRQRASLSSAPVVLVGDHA
# T3 sequence (P06213 1005-1310 limits assumed): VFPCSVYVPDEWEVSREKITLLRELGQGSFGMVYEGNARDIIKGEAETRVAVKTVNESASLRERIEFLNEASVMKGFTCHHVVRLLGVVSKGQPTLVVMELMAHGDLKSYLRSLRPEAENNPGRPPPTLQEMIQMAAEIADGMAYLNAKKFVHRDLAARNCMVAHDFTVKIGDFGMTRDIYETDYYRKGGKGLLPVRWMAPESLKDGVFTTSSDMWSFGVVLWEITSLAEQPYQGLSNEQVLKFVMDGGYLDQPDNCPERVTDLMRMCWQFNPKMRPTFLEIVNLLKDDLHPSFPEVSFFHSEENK
# Sequence of SRPK2(h) (P78362 whole entry): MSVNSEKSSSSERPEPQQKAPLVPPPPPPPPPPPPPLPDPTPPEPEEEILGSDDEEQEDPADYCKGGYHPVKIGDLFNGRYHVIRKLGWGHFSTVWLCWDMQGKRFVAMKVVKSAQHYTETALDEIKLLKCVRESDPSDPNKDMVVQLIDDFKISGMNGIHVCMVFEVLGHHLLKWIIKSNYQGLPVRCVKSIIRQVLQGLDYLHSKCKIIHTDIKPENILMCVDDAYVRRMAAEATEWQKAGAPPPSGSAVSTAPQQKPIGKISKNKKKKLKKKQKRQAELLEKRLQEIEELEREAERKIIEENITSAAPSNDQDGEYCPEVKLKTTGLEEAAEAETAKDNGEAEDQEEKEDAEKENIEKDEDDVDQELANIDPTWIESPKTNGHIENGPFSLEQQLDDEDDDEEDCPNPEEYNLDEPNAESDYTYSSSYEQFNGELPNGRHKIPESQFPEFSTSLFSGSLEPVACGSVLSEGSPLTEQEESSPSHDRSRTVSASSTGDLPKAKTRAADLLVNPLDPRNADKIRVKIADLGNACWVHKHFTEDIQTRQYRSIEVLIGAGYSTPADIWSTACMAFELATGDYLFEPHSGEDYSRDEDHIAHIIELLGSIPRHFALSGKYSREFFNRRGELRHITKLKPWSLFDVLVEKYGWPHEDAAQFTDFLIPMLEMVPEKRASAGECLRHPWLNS
# Sequence of SAPK2a(h) (Q16539 whole entry): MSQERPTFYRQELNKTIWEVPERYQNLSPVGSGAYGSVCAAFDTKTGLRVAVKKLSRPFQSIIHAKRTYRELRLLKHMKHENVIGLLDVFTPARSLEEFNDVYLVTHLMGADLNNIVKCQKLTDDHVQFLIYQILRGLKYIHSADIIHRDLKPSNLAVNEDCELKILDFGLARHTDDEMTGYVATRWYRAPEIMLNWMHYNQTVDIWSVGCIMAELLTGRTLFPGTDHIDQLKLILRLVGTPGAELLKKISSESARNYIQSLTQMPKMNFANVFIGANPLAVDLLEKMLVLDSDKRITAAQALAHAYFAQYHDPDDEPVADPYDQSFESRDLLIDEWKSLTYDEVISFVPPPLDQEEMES
# Sequence of CDK7/cyclinH/MAT1(h) (P50613 whole entry): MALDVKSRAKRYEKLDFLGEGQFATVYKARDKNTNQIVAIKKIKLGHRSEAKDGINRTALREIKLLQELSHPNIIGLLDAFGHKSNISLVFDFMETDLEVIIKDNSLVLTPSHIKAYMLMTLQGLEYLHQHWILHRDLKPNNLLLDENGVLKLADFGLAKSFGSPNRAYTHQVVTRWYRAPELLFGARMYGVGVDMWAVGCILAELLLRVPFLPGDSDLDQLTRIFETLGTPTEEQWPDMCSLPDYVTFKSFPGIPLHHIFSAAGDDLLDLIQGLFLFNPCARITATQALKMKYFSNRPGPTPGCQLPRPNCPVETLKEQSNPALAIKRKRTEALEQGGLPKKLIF
# Sequence of CDK7/cyclinH/MAT1(h) (P51946 whole entry partner): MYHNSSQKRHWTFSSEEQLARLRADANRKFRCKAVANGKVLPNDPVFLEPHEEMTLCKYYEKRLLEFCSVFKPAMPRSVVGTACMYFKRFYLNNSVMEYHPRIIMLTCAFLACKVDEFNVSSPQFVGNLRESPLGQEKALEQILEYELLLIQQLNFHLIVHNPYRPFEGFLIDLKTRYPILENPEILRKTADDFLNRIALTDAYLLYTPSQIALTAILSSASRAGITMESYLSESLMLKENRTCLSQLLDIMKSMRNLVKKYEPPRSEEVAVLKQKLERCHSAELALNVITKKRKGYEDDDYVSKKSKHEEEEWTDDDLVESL
# Sequence of CDK7/cyclinH/MAT1(h) (P51948 whole entry partner): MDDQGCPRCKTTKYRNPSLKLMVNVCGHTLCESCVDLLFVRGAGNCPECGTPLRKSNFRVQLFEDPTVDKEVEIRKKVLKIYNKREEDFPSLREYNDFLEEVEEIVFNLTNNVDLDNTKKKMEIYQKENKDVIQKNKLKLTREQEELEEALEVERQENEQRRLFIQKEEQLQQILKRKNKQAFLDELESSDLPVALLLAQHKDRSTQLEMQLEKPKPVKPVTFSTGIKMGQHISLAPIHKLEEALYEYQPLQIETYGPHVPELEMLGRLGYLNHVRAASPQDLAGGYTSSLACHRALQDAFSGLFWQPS
# T4 sequence (O60674 whole entry): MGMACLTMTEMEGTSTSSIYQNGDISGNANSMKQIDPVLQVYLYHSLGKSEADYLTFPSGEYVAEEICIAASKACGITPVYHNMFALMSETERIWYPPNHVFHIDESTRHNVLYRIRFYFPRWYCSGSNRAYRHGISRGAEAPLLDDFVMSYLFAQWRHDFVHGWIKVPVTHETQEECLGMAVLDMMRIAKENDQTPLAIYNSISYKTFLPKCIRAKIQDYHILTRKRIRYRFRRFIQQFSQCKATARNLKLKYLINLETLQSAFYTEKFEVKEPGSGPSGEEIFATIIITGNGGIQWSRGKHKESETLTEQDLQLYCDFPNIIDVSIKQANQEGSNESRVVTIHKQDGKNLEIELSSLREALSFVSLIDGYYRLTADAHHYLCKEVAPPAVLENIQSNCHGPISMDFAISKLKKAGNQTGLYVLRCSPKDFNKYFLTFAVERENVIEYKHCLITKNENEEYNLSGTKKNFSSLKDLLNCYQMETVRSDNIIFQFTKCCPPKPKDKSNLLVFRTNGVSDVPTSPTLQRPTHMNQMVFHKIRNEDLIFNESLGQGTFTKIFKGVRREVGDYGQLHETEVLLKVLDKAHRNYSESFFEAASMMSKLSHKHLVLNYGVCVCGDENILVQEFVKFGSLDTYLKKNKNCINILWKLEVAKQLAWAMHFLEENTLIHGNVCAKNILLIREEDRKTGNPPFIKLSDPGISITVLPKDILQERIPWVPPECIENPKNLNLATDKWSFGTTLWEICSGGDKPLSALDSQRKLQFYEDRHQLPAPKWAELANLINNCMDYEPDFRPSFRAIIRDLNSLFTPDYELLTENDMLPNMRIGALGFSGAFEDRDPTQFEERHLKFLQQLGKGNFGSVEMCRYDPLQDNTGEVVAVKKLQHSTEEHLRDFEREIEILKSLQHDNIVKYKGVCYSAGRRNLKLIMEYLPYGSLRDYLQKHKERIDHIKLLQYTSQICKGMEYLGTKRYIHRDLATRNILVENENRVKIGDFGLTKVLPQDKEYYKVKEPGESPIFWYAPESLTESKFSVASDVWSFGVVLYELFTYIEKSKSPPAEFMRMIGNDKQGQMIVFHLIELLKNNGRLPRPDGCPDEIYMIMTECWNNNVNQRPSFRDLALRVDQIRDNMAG
Sequence,ALK4(h) % activity (ALK4(h)),CDK7/cyclinH/MAT1(h) % activity (CDK7/cyclinH/MAT1(h)),Txk(h) % activity (Txk(h)),Mnk2(h) % activity (Mnk2(h)),"IR(h), activated % activity (IR(h), activated)",SAPK2a(h) % activity (SAPK2a(h)),JAK2(h) % activity (JAK2(h)),eEF-2K(h) % activity (eEF-2K(h)),GRK7(h) % activity (GRK7(h)),SRPK2(h) % activity (SRPK2(h))
FAKLAARLYRKALARQLGVAA [MMI-0300],140%,65%,48%,89%,79%,90%,133%,91%,122%,
KAFAKLAARLYRKALARQLGVAA [MMI-0400],130%,47%,37%,86%,59%,85%,,43%,100%,97%
YARAAARQARAKALNRQLGVA (Mammalian) [MMI-0200],152%,67%,98%,,,,131%,,124%,100%
HRRIKAWLKKIKALARQLGVAA (Mammalian) [MMI-0500],81%,15%,10%,6%,90%,52%,49%,43%,93%,80%
